Target: type I IFN-β receptor (human (endogenous in A549 and Daudi)) (UniProt P48551)
UniProt P48551, sequence (P48551 27-515): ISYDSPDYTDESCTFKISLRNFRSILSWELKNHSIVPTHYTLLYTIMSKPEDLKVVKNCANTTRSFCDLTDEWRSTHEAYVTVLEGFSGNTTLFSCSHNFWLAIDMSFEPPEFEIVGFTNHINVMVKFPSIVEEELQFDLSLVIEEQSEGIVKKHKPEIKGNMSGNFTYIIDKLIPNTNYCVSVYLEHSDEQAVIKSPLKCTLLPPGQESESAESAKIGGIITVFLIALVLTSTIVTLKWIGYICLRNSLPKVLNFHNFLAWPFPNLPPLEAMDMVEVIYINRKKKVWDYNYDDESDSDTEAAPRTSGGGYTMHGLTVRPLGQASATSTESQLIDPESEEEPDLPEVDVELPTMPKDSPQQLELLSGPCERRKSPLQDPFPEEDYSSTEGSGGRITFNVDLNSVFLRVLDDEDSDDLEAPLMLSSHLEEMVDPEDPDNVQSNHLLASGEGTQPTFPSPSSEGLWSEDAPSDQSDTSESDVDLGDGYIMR

Row | Substance | 50% response in a FACS assay of IFN-inducible expression of MHC class I on the surface of A549 cells [pg/mL] | IC50 in the antiproliferative assay (Daudi cells, 48 hr) [ng/mL] | in vitro anti-viral activity (protection of A549 cells against the cytopathic effect of EMCV) [IU/mg] | in vitro anti-viral activity (protection of A549 cells against the cytopathic effect of EMCV), average of two lots [IU/mg] | in vitro anti-viral activity (protection of A549 cells against the cytopathic effect of EMCV), average of three lots [IU/mg]
1 | Rebif (recombinant human interferon-β 1a) (from UniProt P01574 22-187) (ligand) | 238 | 0.029 | 2.88e+08 | – | –
2 | R27TΔGlyc (from UniProt P01574 22-187) (ligand) | 359 | 0.022 | – | 2.52e+08 | –
3 | R27T (rhIFN-β mutein with N-glycosylation at the 25th and 80th amino acid) (from UniProt P01574 22-187) (ligand) | 265 | 0.014 | – | – | 2.99e+08

— publication PMC4032242
